Experimental data from paper PMC4231741.

Target: MspJI wild type (modification-dependent restriction endonuclease)
Assay: crystal structure

MspJI wild type (modification-dependent restriction endonuclease) (enzyme)
stoichiometry N: 4
